Assay results published in patent US6649409.
“And” between values parts separate entries of the source, which are not always exact repeats. Equal entries are not always repeated.

Tests used:
[1] = target: HIV-1 BX08 envelope glycoprotein gp160 expressed from the wild type gene wt.gp160BX08 (HIV-1 BX08); experiment: flow cytometry (FACS) on transfected 293 cells, mean of duplicates
[2] = target: HIV-1 BX08 envelope glycoprotein gp160 expressed from the synthetic gene syn.gp160BX08 (HIV-1 BX08); experiment: as above
[3] = target: HIV-1 BX08 envelope glycoprotein gp160 expressed from the wild type gene wt.gp160BX08 (HIV-1 BX08); experiment: flow cytometry (FACS) on transfected 293 cells, PE-labelled rat anti-mouse IgG1 as secondary
[4] = target: HIV-1 BX08 envelope glycoprotein gp160 expressed from the synthetic gene syn.gp160BX08 (HIV-1 BX08); experiment: as above

mouse monoclonal IgG antibody to HIV gp120 (NEA-9301, NEN Life Science Products Inc., Boston)
mean % of cells stained [1]: 11%
mean % of cells stained [2]: 48%
% of cells stained (C: Primary Ab and secondary Ab added) [3]: 14.4% and 7.51%
% of cells stained, C-A (less control without primary antibody) [3]: 11.4% and 5.56%
% of cells stained, C-B (less autofluorescence control) [3]: 13% and 5.99%
% of cells stained (C: Primary Ab and secondary Ab added) [4]: 36.9% and 58.4%
% of cells stained, C-A (less control without primary antibody) [4]: 34.3% and 55.6%
% of cells stained, C-B (less autofluorescence control) [4]: 34.1% and 56.3%
